Measurements reported in paper PMC5640511 (Current Biology, 2017).

Target: Bub3 (recombinant, untagged) (human, UniProt O43684 1-328)
Assay: SEC

Chain of Bub3 (recombinant, untagged) (O43684 whole entry): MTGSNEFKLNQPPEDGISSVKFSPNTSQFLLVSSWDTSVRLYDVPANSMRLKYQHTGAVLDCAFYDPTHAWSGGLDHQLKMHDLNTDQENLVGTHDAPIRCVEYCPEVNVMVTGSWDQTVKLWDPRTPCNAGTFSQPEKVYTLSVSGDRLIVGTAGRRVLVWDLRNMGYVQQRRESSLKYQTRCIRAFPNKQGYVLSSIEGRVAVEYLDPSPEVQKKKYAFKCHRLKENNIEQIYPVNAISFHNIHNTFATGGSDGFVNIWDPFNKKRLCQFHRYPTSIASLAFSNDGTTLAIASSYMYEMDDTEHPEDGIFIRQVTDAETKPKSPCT

- binding result: binds
B1: BubR1 1-571 B1-LL (recombinant) (other)
chain: MAAVKKEGGALSEAMSLEGDEWELSKENVQPLRQGRIMSTLQGALAQESACNNTLQQQKRAFEYEIRFYTGNDPLDVWDRYISWTEQNYPQGGKESNMSTLLERAVEALQGEKRYYSDPRFLNLWLKLGRLCNEPLDMYSYLHNQGIGVSLAQFYISWAEEYEARENFRKADAIFQEGIQQKAEPLERLQSQHRQFQARVSRQTLLALEKEEEEEVFESSVPQRSTLAELKSKGKKTARAPIIRVGGALKAPSQNRGLQNPFPQQMQNNSRITVFDENADEASTAELSKPTVQPWIAPPMPRAKENELQAGPWNTGRSLEHRPRGNTASLIAVPAVLPSFTPYVEETARQPVMTPCKIEPSIRRVITISKSEYSVHSSLASKVDVEQVVMYCKEKIYAGVGEFSFEEIRAEVFRKKLKEQREAELLTSAEKRAEMQKQIEEMEKKLKEIQTTQQERTGDQQEETMPTKETTKLQIASESQKIPGMTLSSSVCQVNCCARETSLAENIWQEQPHSKGPSVPFSIFDEFLLSEKKNKSPPADPPRVLAQRRPLAVLKTSESITSNE
